Experiment [1] concerns the target H111A HupZ-V5-His6 (Streptococcus pyogenes (Group A Streptococcus)). Put plainly: SEC; ligand-free protein, 200 uM, 1 mL injected; Superdex Increase 200 10/300 GL, 20 mM Tris-HCl, 50 mM NaCl, pH 7.4, 0.4 mL/min; mass from a calibration curve of standards.
For experiment [2] the target is unchanged. As to the kind of experiment: SEC; protein reconstituted with 1.2 eq hemin and desalted, 200 uM, 1 mL injected; Superdex Increase 200 10/300 GL, 20 mM Tris-HCl, 50 mM NaCl, pH 7.4, 0.4 mL/min; mass from a calibration curve of standards. (In general: Size exclusion chromatography separates by hydrodynamic size, large species first.)
In experiment [3] the target is HupZ-V5-His6 (heme utilization protein Z with a C-terminal V5-His6 tag) (Streptococcus pyogenes (Group A Streptococcus)). Put plainly: SEC; ligand-free protein, 200 uM, 1 mL injected; Superdex Increase 200 10/300 GL, 20 mM Tris-HCl, 50 mM NaCl, pH 7.4, 0.4 mL/min; mass from a calibration curve of standards.
For experiment [4] the target is unchanged. As to the kind of experiment: SEC; protein reconstituted with 1.2 eq hemin and desalted, 200 uM, 1 mL injected; Superdex Increase 200 10/300 GL, 20 mM Tris-HCl, 50 mM NaCl, pH 7.4, 0.4 mL/min; mass from a calibration curve of standards.

With H111A HupZ-V5-His6 (natural protein), the stoichiometry N in experiment [1] and in experiment [2] was 2 in each case.

“HupZ-V5-His6 (heme utilization protein Z with a C-terminal V5-His6 tag) (natural protein)”: the stoichiometry N in experiment [3] and in experiment [4] was 2 in each case.

The term stoichiometry N denotes the number of molecules, sites or subunits per partner or assembly.
